Test results reported in US20150344570A1 (published 2015).
Numbering of substitutions follows the chain as printed. Names may count otherwise.

T1: FcγRIIa R (extracellular domain, His tag at the C terminus) (human, UniProt P12318 34-217)
T1 construct: extracellular domain; Soluble analyte in Biacore; also called FcgRIIa R type; 2aR
T1 sequence (looked up): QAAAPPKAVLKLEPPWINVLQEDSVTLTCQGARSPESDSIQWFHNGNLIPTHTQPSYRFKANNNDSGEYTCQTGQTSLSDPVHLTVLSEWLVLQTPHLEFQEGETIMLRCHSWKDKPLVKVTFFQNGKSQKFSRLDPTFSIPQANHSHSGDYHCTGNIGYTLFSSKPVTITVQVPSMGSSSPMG

T2: FcγRIIa H (human, UniProt P12318 34-217)
T2 construct: extracellular domain; also called FcgRIIa H; 2aH; not shown: His tag at the C terminus
T2 sequence (looked up): T1 sequence (looked up) with R134H

T3: FcγRIIb (human, UniProt P31994 43-217)
T3 construct: extracellular domain; also called FcgRIIb; 2b; not shown: His tag at the C terminus
T3 sequence (looked up): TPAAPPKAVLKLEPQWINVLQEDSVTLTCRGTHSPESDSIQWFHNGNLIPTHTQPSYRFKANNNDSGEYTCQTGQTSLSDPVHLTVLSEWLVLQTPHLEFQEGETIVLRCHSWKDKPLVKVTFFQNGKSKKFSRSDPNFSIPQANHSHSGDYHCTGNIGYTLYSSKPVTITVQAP

B1: GpH7-B3 variant T335_15Y/GpL16-k0 (antibody, human IgG1, kappa)
heavy: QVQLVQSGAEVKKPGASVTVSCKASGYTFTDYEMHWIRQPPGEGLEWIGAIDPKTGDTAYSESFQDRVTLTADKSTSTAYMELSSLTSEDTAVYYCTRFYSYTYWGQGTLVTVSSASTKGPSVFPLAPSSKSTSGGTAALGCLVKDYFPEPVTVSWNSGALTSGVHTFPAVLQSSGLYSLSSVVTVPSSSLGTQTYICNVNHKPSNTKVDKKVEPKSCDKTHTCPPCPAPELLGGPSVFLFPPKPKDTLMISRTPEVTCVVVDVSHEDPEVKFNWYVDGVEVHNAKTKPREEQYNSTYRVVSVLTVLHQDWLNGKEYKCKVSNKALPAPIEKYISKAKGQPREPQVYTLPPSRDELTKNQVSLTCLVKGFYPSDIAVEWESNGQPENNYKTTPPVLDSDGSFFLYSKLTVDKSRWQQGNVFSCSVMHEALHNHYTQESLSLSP
light: DIVMTQSPLSLPVTPGEPASISCQASESLVHSNRNTYLHWYLQKPGQSPQLLIYKVSNRFSGVPDRFSGSGSGTDFTLKISRVEAEDVGVYYCSQNTHVPPTFGQGTKVEIERTVAAPSVFIFPPSDEQLKSGTASVVCLLNNFYPREAKVQWKVDNALQSGNSQESVTEQDSKDSTYSLSSTLTLSKADYEKHKVYACEVTHQGLSSPVTKSFNRGEC
notes: homodimerized; also called Ho Ab
B2: GpH7-B3 variant I332_09D/GpL16-k0 (antibody, human IgG1, kappa)
heavy: not shown
light: B1 light
notes: as for B1
B3: GpH7-B3 variant I332_15Y/GpL16-k0 (antibody, human IgG1, kappa)
heavy: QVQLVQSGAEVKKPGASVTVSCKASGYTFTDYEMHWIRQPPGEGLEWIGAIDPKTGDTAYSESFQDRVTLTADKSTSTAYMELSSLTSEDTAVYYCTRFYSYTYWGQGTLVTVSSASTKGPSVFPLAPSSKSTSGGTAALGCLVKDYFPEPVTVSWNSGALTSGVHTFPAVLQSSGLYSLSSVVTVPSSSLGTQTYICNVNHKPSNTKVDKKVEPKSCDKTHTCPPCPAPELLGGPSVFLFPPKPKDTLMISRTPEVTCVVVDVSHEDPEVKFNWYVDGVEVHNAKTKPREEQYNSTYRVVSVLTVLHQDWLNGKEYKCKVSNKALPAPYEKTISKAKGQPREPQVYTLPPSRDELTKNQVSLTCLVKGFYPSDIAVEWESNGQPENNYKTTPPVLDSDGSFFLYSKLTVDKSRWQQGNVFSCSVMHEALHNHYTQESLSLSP
light: B1 light
notes: as for B1
B4: GpH7-B3 variant H268_13S/GpL16-k0 (antibody, human IgG1, kappa)
heavy: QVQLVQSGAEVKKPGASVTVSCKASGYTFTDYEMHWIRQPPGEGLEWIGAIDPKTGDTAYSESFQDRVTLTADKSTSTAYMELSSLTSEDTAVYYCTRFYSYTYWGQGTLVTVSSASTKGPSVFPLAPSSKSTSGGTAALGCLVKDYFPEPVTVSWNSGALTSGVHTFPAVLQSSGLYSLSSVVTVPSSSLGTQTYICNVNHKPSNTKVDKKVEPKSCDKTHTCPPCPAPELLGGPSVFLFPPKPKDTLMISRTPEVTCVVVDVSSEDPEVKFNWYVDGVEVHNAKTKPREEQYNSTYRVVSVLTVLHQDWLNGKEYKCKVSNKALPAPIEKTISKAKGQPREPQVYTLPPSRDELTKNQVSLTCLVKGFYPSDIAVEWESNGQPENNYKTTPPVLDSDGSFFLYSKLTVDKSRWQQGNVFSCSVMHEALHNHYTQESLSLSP
light: B1 light
notes: as for B1
B5: GpH7-B3 variant H268_18N/GpL16-k0 (antibody, human IgG1, kappa)
heavy: not shown
light: B1 light
notes: as for B1
B6: GpH7-B3 variant G236_09D/GpL16-k0 (antibody, human IgG1, kappa)
heavy: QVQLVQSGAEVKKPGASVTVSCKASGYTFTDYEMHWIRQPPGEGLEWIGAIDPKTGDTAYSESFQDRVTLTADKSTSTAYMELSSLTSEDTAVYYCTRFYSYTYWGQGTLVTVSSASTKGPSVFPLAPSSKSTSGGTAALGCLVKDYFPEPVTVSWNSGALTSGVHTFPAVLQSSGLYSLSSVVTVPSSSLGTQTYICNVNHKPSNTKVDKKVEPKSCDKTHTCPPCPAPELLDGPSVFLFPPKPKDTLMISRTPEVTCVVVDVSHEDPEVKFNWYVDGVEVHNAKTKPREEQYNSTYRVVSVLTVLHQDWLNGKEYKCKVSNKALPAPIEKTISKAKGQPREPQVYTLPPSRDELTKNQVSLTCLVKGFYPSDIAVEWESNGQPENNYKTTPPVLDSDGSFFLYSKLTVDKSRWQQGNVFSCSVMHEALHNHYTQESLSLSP
light: B1 light
notes: as for B1
B7: GpH7-B3 variant K326_09D/GpL16-k0 (antibody, human IgG1, kappa)
heavy: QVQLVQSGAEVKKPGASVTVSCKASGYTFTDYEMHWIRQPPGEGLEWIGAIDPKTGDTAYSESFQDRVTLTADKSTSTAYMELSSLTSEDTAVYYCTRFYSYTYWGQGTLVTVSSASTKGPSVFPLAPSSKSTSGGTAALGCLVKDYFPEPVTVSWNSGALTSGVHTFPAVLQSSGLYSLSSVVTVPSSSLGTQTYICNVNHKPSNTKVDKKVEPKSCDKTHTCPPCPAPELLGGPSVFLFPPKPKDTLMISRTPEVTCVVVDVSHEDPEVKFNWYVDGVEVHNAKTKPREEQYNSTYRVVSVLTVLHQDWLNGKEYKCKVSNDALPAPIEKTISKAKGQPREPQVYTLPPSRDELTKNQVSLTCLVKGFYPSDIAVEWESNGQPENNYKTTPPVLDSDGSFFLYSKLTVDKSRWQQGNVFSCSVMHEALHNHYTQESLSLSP
light: B1 light
notes: as for B1
B8: GpH7-B3 variant K326_14T/GpL16-k0 (antibody, human IgG1, kappa)
heavy: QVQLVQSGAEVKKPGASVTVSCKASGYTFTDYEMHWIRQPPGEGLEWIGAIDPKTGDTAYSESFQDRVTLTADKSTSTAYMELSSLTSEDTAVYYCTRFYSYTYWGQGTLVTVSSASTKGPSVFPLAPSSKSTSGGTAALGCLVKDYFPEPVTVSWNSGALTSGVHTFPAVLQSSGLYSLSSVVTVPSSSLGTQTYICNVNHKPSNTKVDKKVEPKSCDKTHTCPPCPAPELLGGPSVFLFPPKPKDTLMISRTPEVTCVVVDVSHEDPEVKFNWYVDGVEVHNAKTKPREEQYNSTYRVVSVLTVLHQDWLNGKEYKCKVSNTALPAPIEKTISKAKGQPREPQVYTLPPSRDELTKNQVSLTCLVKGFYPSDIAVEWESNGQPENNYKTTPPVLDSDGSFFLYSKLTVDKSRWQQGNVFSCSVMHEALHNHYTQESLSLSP
light: B1 light
notes: as for B1
B9: GpH7-B3 variant K326_10E/GpL16-k0 (antibody, human IgG1, kappa)
heavy: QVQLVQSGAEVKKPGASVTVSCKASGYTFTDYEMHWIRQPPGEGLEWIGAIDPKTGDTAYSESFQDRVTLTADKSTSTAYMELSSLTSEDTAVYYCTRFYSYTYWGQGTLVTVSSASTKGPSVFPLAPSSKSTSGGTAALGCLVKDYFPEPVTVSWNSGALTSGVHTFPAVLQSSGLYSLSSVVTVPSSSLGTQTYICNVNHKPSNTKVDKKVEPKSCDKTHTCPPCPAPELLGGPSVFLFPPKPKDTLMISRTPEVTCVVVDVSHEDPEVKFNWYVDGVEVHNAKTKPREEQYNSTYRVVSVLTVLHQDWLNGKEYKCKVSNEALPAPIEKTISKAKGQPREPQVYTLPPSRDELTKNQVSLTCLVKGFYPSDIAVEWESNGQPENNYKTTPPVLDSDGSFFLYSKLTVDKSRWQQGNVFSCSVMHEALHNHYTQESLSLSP
light: B1 light
notes: as for B1
B10: GpH7-B3 variant H268_10E/GpL16-k0 (antibody, human IgG1, kappa)
heavy: not shown
light: B1 light
notes: as for B1
B11: GpH7-B3 variant H268_09D/GpL16-k0 (antibody, human IgG1, kappa)
heavy: not shown
light: B1 light
notes: as for B1
B12: GpH7-B3 variant G236_10E/GpL16-k0 (antibody, human IgG1, kappa)
heavy: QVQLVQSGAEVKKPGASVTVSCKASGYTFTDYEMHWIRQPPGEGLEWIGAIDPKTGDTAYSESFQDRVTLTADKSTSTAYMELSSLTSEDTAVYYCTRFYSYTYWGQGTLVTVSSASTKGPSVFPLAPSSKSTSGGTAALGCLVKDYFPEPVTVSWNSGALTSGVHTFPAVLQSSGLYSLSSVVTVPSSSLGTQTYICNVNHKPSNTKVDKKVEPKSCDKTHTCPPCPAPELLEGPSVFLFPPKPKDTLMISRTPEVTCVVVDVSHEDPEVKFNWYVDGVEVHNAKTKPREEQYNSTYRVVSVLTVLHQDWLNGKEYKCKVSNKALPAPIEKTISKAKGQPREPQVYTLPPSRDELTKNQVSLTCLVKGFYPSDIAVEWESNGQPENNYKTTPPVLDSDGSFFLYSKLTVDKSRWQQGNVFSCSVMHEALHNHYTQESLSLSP
light: B1 light
notes: as for B1
B13: GpH7-B3 variant I332_10E/GpL16-k0 (antibody, human IgG1, kappa)
heavy: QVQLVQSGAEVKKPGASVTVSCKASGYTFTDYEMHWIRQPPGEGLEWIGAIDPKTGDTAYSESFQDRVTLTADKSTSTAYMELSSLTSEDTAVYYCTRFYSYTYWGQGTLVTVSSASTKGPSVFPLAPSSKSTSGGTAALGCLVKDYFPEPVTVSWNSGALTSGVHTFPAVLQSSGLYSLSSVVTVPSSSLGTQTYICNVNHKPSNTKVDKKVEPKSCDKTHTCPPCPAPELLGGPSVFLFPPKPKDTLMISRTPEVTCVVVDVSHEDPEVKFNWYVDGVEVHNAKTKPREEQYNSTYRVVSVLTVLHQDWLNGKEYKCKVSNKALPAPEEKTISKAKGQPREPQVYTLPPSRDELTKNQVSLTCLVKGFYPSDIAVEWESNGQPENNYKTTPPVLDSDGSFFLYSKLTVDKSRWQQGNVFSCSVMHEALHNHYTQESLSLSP
light: B1 light
notes: as for B1
B14: GpH7-B3 variant K326_06M/GpL16-k0 (antibody, human IgG1, kappa)
heavy: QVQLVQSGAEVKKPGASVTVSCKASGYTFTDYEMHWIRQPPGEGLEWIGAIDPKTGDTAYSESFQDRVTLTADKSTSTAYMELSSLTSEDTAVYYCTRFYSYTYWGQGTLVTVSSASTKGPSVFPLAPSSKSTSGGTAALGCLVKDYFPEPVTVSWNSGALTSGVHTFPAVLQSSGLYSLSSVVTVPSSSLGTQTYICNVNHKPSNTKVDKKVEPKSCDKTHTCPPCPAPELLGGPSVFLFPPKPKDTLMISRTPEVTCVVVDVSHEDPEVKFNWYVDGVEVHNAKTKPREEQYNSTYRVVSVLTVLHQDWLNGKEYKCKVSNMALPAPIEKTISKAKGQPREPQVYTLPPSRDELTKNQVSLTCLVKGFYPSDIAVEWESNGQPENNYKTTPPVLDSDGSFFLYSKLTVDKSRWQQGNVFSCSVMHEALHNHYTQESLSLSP
light: B1 light
notes: as for B1
B15: GpH7-B3 variant I332_04F/GpL16-k0 (antibody, human IgG1, kappa)
heavy: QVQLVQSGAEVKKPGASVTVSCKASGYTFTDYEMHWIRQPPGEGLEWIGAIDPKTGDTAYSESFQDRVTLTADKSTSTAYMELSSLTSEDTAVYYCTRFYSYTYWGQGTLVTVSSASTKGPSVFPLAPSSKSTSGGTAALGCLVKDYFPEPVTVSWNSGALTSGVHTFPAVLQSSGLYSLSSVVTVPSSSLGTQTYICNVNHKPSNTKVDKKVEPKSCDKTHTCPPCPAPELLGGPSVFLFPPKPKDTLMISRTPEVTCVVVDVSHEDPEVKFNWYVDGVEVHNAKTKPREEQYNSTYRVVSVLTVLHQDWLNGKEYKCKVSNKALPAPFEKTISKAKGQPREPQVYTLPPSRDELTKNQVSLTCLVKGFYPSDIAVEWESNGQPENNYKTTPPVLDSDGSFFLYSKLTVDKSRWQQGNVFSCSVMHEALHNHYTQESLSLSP
light: B1 light
notes: as for B1
B16: GpH7-A5/GpH7-B3 variant P329_06M/GpL16-k0 (antibody, human IgG1, kappa)
heavy 1: not shown
heavy 2: not shown
light: B1 light
notes: He Ab: mutation in the GpH7-B3 H chain only
B17: GpH7-A5/GpH7-B3 variant P329_19Q/GpL16-k0 (antibody, human IgG1, kappa)
heavy 1: not shown
heavy 2: not shown
light: B1 light
notes: as for B16
B18: GpH7-A5/GpH7-B3 variant P329_16H/GpL16-k0 (antibody, human IgG1, kappa)
heavy 1: not shown
heavy 2: not shown
light: B1 light
notes: as for B16
B19: GpH7-A5/GpH7-B3 variant Y300_13S/GpL16-k0 (antibody, human IgG1, kappa)
heavy 1: not shown
heavy 2: not shown
light: B1 light
notes: as for B16
B20: GpH7-A5/GpH7-B3 variant P329_07I/GpL16-k0 (antibody, human IgG1, kappa)
heavy 1: not shown
heavy 2: not shown
light: B1 light
notes: as for B16
B21: GpH7-A5/GpH7-B3 variant S324_10E/GpL16-k0 (antibody, human IgG1, kappa)
heavy 1: not shown
heavy 2: not shown
light: B1 light
notes: as for B16
B22: GpH7-A5/GpH7-B3 variant S324_19Q/GpL16-k0 (antibody, human IgG1, kappa)
heavy 1: not shown
heavy 2: not shown
light: B1 light
notes: as for B16
B23: GpH7-A5/GpH7-B3 variant P329_08L/GpL16-k0 (antibody, human IgG1, kappa)
heavy 1: not shown
heavy 2: not shown
light: B1 light
notes: as for B16
B24: GpH7-A5/GpH7-B3 variant P329_13S/GpL16-k0 (antibody, human IgG1, kappa)
heavy 1: not shown
heavy 2: not shown
light: B1 light
notes: as for B16
B25: GpH7-A5/GpH7-B3 variant S324_09D/GpL16-k0 (antibody, human IgG1, kappa)
heavy 1: not shown
heavy 2: not shown
light: B1 light
notes: as for B16
B26: GpH7-A5/GpH7-B3 variant S324_02A/GpL16-k0 (antibody, human IgG1, kappa)
heavy 1: not shown
heavy 2: not shown
light: B1 light
notes: as for B16
B27: GpH7-A5/GpH7-B3 variant Y300_12R/GpL16-k0 (antibody, human IgG1, kappa)
heavy 1: not shown
heavy 2: not shown
light: B1 light
notes: as for B16
B28: GpH7-A5/GpH7-B3 variant P329_15Y/GpL16-k0 (antibody, human IgG1, kappa)
heavy 1: not shown
heavy 2: not shown
light: B1 light
notes: as for B16
B29: GpH7-A5/GpH7-B3 variant S324_16H/GpL16-k0 (antibody, human IgG1, kappa)
heavy 1: not shown
heavy 2: not shown
light: B1 light
notes: as for B16
B30: GpH7-A5/GpH7-B3 variant S324_12R/GpL16-k0 (antibody, human IgG1, kappa)
heavy 1: not shown
heavy 2: not shown
light: B1 light
notes: as for B16
B31: GpH7-A5/GpH7-B3 variant S324_18N/GpL16-k0 (antibody, human IgG1, kappa)
heavy 1: not shown
heavy 2: not shown
light: B1 light
notes: as for B16
B32: GpH7-A5/GpH7-B3 variant P329_12R/GpL16-k0 (antibody, human IgG1, kappa)
heavy 1: not shown
heavy 2: not shown
light: B1 light
notes: He Ab: P329R (EU numbering) in the GpH7-B3 H chain only; also called GpH7-A5/GpH7-B12/GpL16-k0
B33: GpH7-A5/GpH7-B3 variant S324_01G/GpL16-k0 (antibody, human IgG1, kappa)
heavy 1: not shown
heavy 2: not shown
light: B1 light
notes: as for B16
B34: GpH7-A5/GpH7-B3 variant Y300_14T/GpL16-k0 (antibody, human IgG1, kappa)
heavy 1: not shown
heavy 2: not shown
light: B1 light
notes: as for B16
B35: GpH7-A5/GpH7-B3 variant P329_11K/GpL16-k0 (antibody, human IgG1, kappa)
heavy 1: not shown
heavy 2: not shown
light: B1 light
notes: He Ab: P329K (EU numbering) in the GpH7-B3 H chain only; also called GpH7-A5/GpH7-B13/GpL16-k0
B36: GpH7-A5/GpH7-B3 variant P329_14T/GpL16-k0 (antibody, human IgG1, kappa)
heavy 1: not shown
heavy 2: not shown
light: B1 light
notes: as for B16
B37: GpH7-A5/GpH7-B3 variant S324_11K/GpL16-k0 (antibody, human IgG1, kappa)
heavy 1: not shown
heavy 2: not shown
light: B1 light
notes: as for B16
B38: GpH7-A5/GpH7-B3 variant P329_18N/GpL16-k0 (antibody, human IgG1, kappa)
heavy 1: not shown
heavy 2: not shown
light: B1 light
notes: as for B16

biological target: T1, FcγRIIa R (extracellular domain, His …); test: SPR (Biacore), relative binding, control GpH7-B3/GpL16-k0 = 100
Description: (§1) Analysis of interaction between objective antibody and the FcγR was carried out using Biacore T100 (GE Healthcare). HBS-EP+ (GE Healthcare) was used as the running buffer, and the measurement temperature was set to 25° C. Chips produced by immobilizing the antigen peptide by the amine coupling method to a Series S Sencor Chip CM5 (GE Healthcare), or alternatively, chips produced by allowing preliminarily biotinylated antigen peptides to interact with and immobilize onto a Series S Sensor Chip SA (certified) (GE Healthcare) were used. Antibodies of interest were captured onto an antigen peptide-immobilized chip, and allowed to interact to each FcγR diluted with running buffer. To regenerate and repeatedly use the chip, the antibodies captured on the chip were washed off by reacting 10 mM glycine-HCl, pH 1.5.

Ho/Con_2aR | Binder
107 % of control | B1
127 % of control | B2
111 % of control | B3
135 % of control | B4
134 % of control | B5
107 % of control | B6
158 % of control | B7
141 % of control | B8
156 % of control | B9
154 % of control | B10
157 % of control | B11
140 % of control | B12
123 % of control | B13
143 % of control | B14
109 % of control | B15

biological target: T2, FcγRIIa H; test: SPR (Biacore), FcγR passed over captured antibody; binding amount as % of control GpH7-A5/GpH7-B3/GpL16-k0 (=100)
Description: (§2) The heterodimerized antibodies He Abs in which one of the H chains was introduced with an alteration were assayed for their binding activities to each activating FcγR and inhibitory FcγR according to the method described in Example 4. […] The activating FcγRs in FIGS. 26, 27, 28, and 29 are FcγRIa, FcγRIIa (R), FcγRIIa (H), and FcγRIIIa, respectively.
as §1

He/Con_2aH | Binder
43.7 relative, control = 100 | B16
38.7 relative, control = 100 | B17
66.1 relative, control = 100 | B18
88.1 relative, control = 100 | B19
53.8 relative, control = 100 | B20
103 relative, control = 100 | B21
96 relative, control = 100 | B22
45.4 relative, control = 100 | B23
67.3 relative, control = 100 | B24
106 relative, control = 100 | B25
102 relative, control = 100 | B26
55.4 relative, control = 100 | B27
68.7 relative, control = 100 | B28
102 relative, control = 100 | B29
96.5 relative, control = 100 | B30
97.8 relative, control = 100 | B31
46.4 relative, control = 100 | B32
98.8 relative, control = 100 | B33
94.1 relative, control = 100 | B34
46.2 relative, control = 100 | B35
62.4 relative, control = 100 | B36
92.2 relative, control = 100 | B37
66.2 relative, control = 100 | B38

biological target: T3, FcγRIIb; test: as above
Description: as §2, §1

He/Con_2b | Binder
29.1 relative, control = 100 | B16
30.7 relative, control = 100 | B17
39.1 relative, control = 100 | B18
53.9 relative, control = 100 | B19
34.6 relative, control = 100 | B20
77.4 relative, control = 100 | B21
66.8 relative, control = 100 | B22
29.1 relative, control = 100 | B23
41 relative, control = 100 | B24
85.8 relative, control = 100 | B25
78.3 relative, control = 100 | B26
41.2 relative, control = 100 | B27
45.7 relative, control = 100 | B28
83.5 relative, control = 100 | B29
63.1 relative, control = 100 | B30
81.1 relative, control = 100 | B31
17.6 relative, control = 100 | B32
81.1 relative, control = 100 | B33
55.6 relative, control = 100 | B34
16.9 relative, control = 100 | B35
37.9 relative, control = 100 | B36
68.6 relative, control = 100 | B37
40.4 relative, control = 100 | B38

biological target: T2, FcγRIIa H; test: SPR (Biacore); He/Con_2aH divided by He/Con_2b (FcγRIIa H versus FcγRIIb)
Description: as §2, §1

He_2aH/2b (IIaH/IIb) | Binder
1.5 ratio | B16
1.26 ratio | B17
1.69 ratio | B18
1.64 ratio | B19
1.56 ratio | B20
1.33 ratio | B21
1.44 ratio | B22
1.56 ratio | B23
1.64 ratio | B24
1.23 ratio | B25
1.31 ratio | B26
1.34 ratio | B27
1.5 ratio | B28
1.22 ratio | B29
1.53 ratio | B30
1.21 ratio | B31
2.63 ratio | B32
1.22 ratio | B33
1.69 ratio | B34
2.74 ratio | B35
1.65 ratio | B36
1.34 ratio | B37
1.64 ratio | B38
